Results as given in the supplement of paper PMC7877785.
± gives the uncertainty stated by the source.

Experiment: self-splicing fitness, log relative to wild type (ln ratio); higher = more splicing; Tetrahymena group I intron in knt gene, E. coli kanamycin selection, DiMSum; sequences stand for … in CUCUCU…GGAGGGAAAAGUUAUCAGGCAUGCACCUGGUAGCUAGUCUUUAAACCAAUAGAUUGCAUCGGUUUAAAAGGCAAGACCGUCAAAUUGCGGGAAAGGGGUCAACAGCCGUUCAGUACCAAGUCUCAGGGGAAACUUUGAGAUGGCCUUGCAAAGGGUAUGGUAAUAAGCUGACGGACAUGGUCCUAACCACGCAGCCAAGUCCUAAGUCAACAGAUCUUCUGUUGAUAUGGAUGCAGUUCACAGACUAAAUGUCGGUCGGGGAAGAUGUAUUCUUCUCAUAAGAUAUAGUCGGACCUCUCCUUAAUGGGAGCUAGCGGAUGAAGUGAUGCAACACUGGAGCCGCUGGGAACUAAUUUGUAUGCGAAAGUAUAUUGAUUAGUUUUGGAGUACUCGUGGUCG
Summary of the method: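 The eight P1ex-region nucleotides of an intron in the knt kanamycin-resistance gene on pET-22b(+) were all randomised and the library put into E. coli BL21(DE3). Six replicate transformations were grown overnight at 37°C or 30°C on LB agar with or without 25 μg/mL kanamycin, together with 100 μg/mL carbenicillin, 50 μM IPTG and 0.2% rhamnose. Colonies were pooled and amplicon-sequenced on an Illumina HiSeq 2500. Fitness from DiMSum is the error-weighted combination of wild-type-normalised replicate fold changes, kanamycin over none.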

Sequence | self-splicing fitness (ln) (30 °C) | self-splicing fitness (ln) (37 °C)
UUAAAGCAAUAUUACGUUUG | -2.18 ± 0.087 | -0.699 ± 0.093
UUACAGCAAUAUUACGAAAA | -2.35 ± 0.17 | -0.806 ± 0.14
UUACAGCAAUAUUACGAAGG | -3.54 ± 0.31 | -1.3 ± 0.23
UUACAGCAAUAUUACGACGC | 0.421 ± 0.26 | -1.47 ± 0.36
UUACAGCAAUAUUACGACUA | 0.0835 ± 0.1 | 0.256 ± 0.12
UUACAGCAAUAUUACGACUG | -1.26 ± 0.08 | -1.81 ± 0.12
UUACAGCAAUAUUACGAGAG | -1.48 ± 0.11 | -2.4 ± 0.15
UUACAGCAAUAUUACGAGUU | -4.21 ± 0.21 | -2.18 ± 0.14
UUACAGCAAUAUUACGAUCA | -0.398 ± 0.13 | -0.133 ± 0.17
UUACAGCAAUAUUACGCAGA | -1.84 ± 0.14 | -0.823 ± 0.12
UUACAGCAAUAUUACGCUCG | 0.107 ± 0.086 | 0.283 ± 0.11
UUACAGCAAUAUUACGGCUC | -1.76 ± 0.16 | -0.974 ± 0.16
UUACAGCAAUAUUACGGGAA | -1.78 ± 0.086 | -0.461 ± 0.084
UUACAGCAAUAUUACGGGAC | -4.47 ± 0.33 | -2.07 ± 0.25
UUACAGCAAUAUUACGGUCG | 0.503 ± 0.065 | 0.571 ± 0.087
UUACAGCAAUAUUACGGUGC | -3.23 ± 0.21 | -1.92 ± 0.17
UUACAGCAAUAUUACGUAGC | -3.65 ± 0.3 | -2.92 ± 0.27
UUACAGCAAUAUUACGUGAG | -0.626 ± 0.055 | 0.12 ± 0.092
UUACAGCAAUAUUACGUGCA | -1.27 ± 0.055 | -0.148 ± 0.063
UUACAGCAAUAUUACGUGGG | -2.85 ± 0.11 | -2.43 ± 0.13
UUACAGCAAUAUUACGUGUG | -1.72 ± 0.063 | 0.0664 ± 0.077

Sequence | self-splicing fitness (ln) (30 °C) | self-splicing fitness (ln) (37 °C)
UUACAGCAAUAUUACGUUUG | -1.54 ± 0.074 | -1.14 ± 0.094
UUAGAGCAAUAUUACGAUAC | -2.36 ± 0.36 | 
UUAGAGCAAUAUUACGAUUG | -1.95 ± 0.11 | -0.556 ± 0.14
UUAGAGCAAUAUUACGCAAG | -1.18 ± 0.14 | -0.488 ± 0.22
UUAGAGCAAUAUUACGCACG | -0.444 ± 0.17 | -0.183 ± 0.18
UUAGAGCAAUAUUACGCUCG | -1.98 ± 0.23 | 
UUAGAGCAAUAUUACGCUUC | -2.81 ± 0.32 | 
UUAGAGCAAUAUUACGGCCC | -3.84 ± 0.36 | -1.52 ± 0.32
UUAGAGCAAUAUUACGGUCC | -2.67 ± 0.42 | 
UUAGAGCAAUAUUACGGUGA | -0.868 ± 0.067 | -0.176 ± 0.08
UUAGAGCAAUAUUACGGUUG | -1.98 ± 0.15 | -1.16 ± 0.15
UUAGAGCAAUAUUACGUAGA | -2.18 ± 0.17 | -1.41 ± 0.19
UUAGAGCAAUAUUACGUCGG | -1.11 ± 0.12 | -0.455 ± 0.14
UUAUAGCAAUAUUACGAAAA | -1.95 ± 0.39 | -1.31 ± 0.28
UUAUAGCAAUAUUACGAGAU | -3.27 ± 0.31 | -3.38 ± 0.39
UUAUAGCAAUAUUACGAGUA | -1.68 ± 0.38 | -1.09 ± 0.33
UUAUAGCAAUAUUACGAUCG | -0.934 ± 0.12 | -0.581 ± 0.14
UUAUAGCAAUAUUACGCAAU | -2.86 ± 0.3 | -0.556 ± 0.23
UUAUAGCAAUAUUACGCAUU | -3.19 ± 0.23 | -2.72 ± 0.2
UUAUAGCAAUAUUACGCCCA | -1.57 ± 0.22 | -0.787 ± 0.26
UUAUAGCAAUAUUACGCCUA | -1.55 ± 0.15 | 0.273 ± 0.2

Sequence | self-splicing fitness (ln) (30 °C) | self-splicing fitness (ln) (37 °C)
UUAUAGCAAUAUUACGCGCA | -1.06 ± 0.19 | -0.728 ± 0.2
UUAUAGCAAUAUUACGCGUA | -0.829 ± 0.14 | -1.17 ± 0.14
UUAUAGCAAUAUUACGGAAC | -3.09 ± 0.36 | -1.71 ± 0.44
UUAUAGCAAUAUUACGGAGA | -2.04 ± 0.27 | -1.89 ± 0.32
UUAUAGCAAUAUUACGGCCA | -1.18 ± 0.31 | -0.579 ± 0.33
UUAUAGCAAUAUUACGGCUA | -0.836 ± 0.15 | -0.316 ± 0.14
UUAUAGCAAUAUUACGGCUC | -2.3 ± 0.26 | -0.637 ± 0.26
UUAUAGCAAUAUUACGGGGC | -2.88 ± 0.34 | 
UUAUAGCAAUAUUACGUACC | -3.97 ± 0.31 | -3.01 ± 0.3
UUAUAGCAAUAUUACGUAUC | -3.79 ± 0.31 | -3.04 ± 0.32
UUAUAGCAAUAUUACGUAUU |  | -2.08 ± 0.25
UUAUAGCAAUAUUACGUCAU |  | -2.98 ± 0.37
UUAUAGCAAUAUUACGUCUU | -3.35 ± 0.3 | -0.948 ± 0.17
UUAUAGCAAUAUUACGUGCG | -1.06 ± 0.15 | -0.395 ± 0.17
UUAUAGCAAUAUUACGUGCU | -2.75 ± 0.16 | -1.91 ± 0.14
UUAUAGCAAUAUUACGUUCA | -0.931 ± 0.15 | 0.00672 ± 0.15
UUCAAGCAAUAUUACGAAUA | -2.07 ± 0.18 | -0.837 ± 0.12
UUCAAGCAAUAUUACGACGC | -1.27 ± 0.19 | -1.14 ± 0.26
UUCAAGCAAUAUUACGAGAA | -1.84 ± 0.3 | -1.61 ± 0.37
UUCAAGCAAUAUUACGAGGC | -1.97 ± 0.21 | -1.76 ± 0.23
